Experimental data: doi:10.64898/2025.12.11.692727, “Nucleophagy removes cytotoxic trapped PARP1” (bioRxiv, 2025)

Biological target: T1, PARP1, recombinant, full length (printed as GFP-PARP1 in the results) (UniProt P09874 1-1014)
T1 construct: Full-length PARP1 cloned into the NcoI and BamHI sites of the pNIC28 vector; The results call the purified protein GFP-PARP1; the methods describe full-length PARP1 in pNIC28 without naming GFP; source: E. coli expression system, purified
Assay: pull-down; in vitro; PARP1 (2.5 µM) loaded on PARP1-trap beads, TEX264 (2.5 µM) added, 2 hrs at 4°C; 50 mM HEPES pH 7.4, 500 mM NaCl, 0.01% Triton X-100, 1 mM TCEP; stringent washes with 0.1% Triton X-100; Western blot
Conditions: both partners purified

T1 sequence (P09874 whole entry): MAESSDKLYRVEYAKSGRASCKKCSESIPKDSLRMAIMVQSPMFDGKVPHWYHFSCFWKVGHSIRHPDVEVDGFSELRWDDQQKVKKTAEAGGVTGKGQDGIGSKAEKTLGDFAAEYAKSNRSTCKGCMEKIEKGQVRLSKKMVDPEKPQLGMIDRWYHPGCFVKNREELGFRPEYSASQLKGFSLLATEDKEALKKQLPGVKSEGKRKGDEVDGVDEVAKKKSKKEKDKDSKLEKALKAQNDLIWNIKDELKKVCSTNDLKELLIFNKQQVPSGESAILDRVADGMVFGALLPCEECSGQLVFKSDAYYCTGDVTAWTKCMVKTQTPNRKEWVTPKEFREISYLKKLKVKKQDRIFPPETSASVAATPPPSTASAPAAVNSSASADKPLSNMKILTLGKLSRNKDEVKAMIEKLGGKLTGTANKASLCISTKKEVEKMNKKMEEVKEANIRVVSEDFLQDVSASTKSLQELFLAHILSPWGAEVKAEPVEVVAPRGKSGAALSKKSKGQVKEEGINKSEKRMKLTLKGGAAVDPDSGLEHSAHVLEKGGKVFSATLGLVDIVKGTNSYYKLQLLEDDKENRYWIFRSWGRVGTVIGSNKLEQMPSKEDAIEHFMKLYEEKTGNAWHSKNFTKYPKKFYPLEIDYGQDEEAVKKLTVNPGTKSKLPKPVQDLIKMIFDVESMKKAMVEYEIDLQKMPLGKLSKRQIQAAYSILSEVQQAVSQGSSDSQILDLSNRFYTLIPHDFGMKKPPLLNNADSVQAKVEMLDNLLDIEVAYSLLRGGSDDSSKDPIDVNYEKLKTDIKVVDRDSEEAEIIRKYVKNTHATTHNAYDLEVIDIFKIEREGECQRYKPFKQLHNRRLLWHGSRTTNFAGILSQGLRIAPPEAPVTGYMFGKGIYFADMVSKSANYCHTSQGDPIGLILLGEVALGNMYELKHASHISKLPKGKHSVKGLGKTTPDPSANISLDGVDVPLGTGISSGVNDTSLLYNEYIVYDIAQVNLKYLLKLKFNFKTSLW

binding result: binds
B1: TEX264 C-terminal half (186-313), recombinant (domain or fragment, UniProt Q9Y6I9 186-313, looked up)
chain: RQGDFYVPEMKETEWKWRGLVEAIDTQVDGTGADTMSDTSSVSLEVSPGSRETSAATLSPGASSRGWDDGDTRSEHSYSESGASGSSFEELDLEGEGPLGESRLDPGTEPLGTTKWLWEPTAPEKGKE
notes: The range 186-313 of the methods is tied to the 'C-terminal half' of the results by its position; source: E. coli expression system, purified
